This is an account of results in patent US20200215180A1.

The term % inhibition denotes the change of the read-out against control, counted positive when it falls. A low value points to a response near the control.

Experiment [1] has as its target Hyperglycosylated exodomain Zika (from pCRO28), HEK293-expressed (Zika virus). The experiment in a line: ELISA. (An ELISA detects its analyte on a solid surface through an enzyme-linked reagent.)
Experiment [2] has as its target Hyperglycosylated dengue-3 exodomain (HX), insect (Tni) cell expressed (dengue virus serotype 3) (UniProt Q6YMS4). Description: ELISA.
Experiment [3] deals with wild-type insect cell expressed Zika exodomain antigen (Zika virus). The experiment in a line: ELISA.
The target in experiment [4] is Hyperglycosylated exodomain D4 (from pCRO24), HEK293-expressed (dengue virus serotype 4) (UniProt P09866). Description: ELISA.
The target in experiment [5] is Hyperglycosylated exodomain D1 (from pCRO21), HEK293-expressed (dengue virus serotype 1) (UniProt P27909). Description: ELISA.
The target of experiment [6] is Hyperglycosylated exodomain D2 (from pCRO22), HEK293-expressed (dengue virus serotype 2) (UniProt P18356). Description: ELISA.
For experiment [7], the target named is Hyperglycosylated dengue-4 exodomain (HX), insect (Tni) cell expressed (dengue virus serotype 4) (UniProt P09866). The experiment in a line: ELISA.
In experiment [8] the target is Hyperglycosylated dengue-2 exodomain (HX), insect (Tni) cell expressed (dengue virus serotype 2) (UniProt P18356). Description: ELISA.
Experiment [9] has as its target Hyperglycosylated Zika exodomain (HX), insect (Tni) cell expressed (Zika virus). Description: ELISA.
Experiment [10] deals with Hyperglycosylated dengue-1 exodomain (HX), insect (Tni) cell expressed (dengue virus serotype 1) (UniProt P27909). Description: ELISA.
Experiment [11] addresses Hyperglycosylated exodomain D3 (from pCRO23), HEK293-expressed (dengue virus serotype 3) (UniProt Q6YMS4). Description: ELISA.
In the next experiment the target is VLPs. The experiment in a line: competition ELISA, 4G2 in solution phase at 10 micrograms per ml.

For “Aalto Bioreagents anti-Zika antibody AZ1176-0302156-Lot3889”, the absorbance was 3.1 absorbance in experiment [1]; 0.3 absorbance in experiment [2]; 1 absorbance in [3]; 0.1 absorbance in experiment [4]; 0.1 absorbance in experiment [5]; 0.1 absorbance in [6]. The absorbance in [7] amounted to 0.1 absorbance; in experiment [8] it was 0.1 absorbance; in [9], 2 absorbance; in [10] it was 0.2 absorbance; in experiment [11], 0.1 absorbance.

With ZKA64 (antibody), the absorbance in [1] turned out to be 0.9 absorbance; in experiment [2] it was 0.2 absorbance; in experiment [3], 0.8 absorbance; in [4], 0.1 absorbance; in [5] it was 0.1 absorbance; in experiment [6], 0.1 absorbance. In addition, the absorbance in experiment [7] stood at 0.1 absorbance; in experiment [8], 0.2 absorbance; in experiment [9], 0.7 absorbance; in experiment [10], 0.2 absorbance; in experiment [11] it was 0.1 absorbance.

On to ZKA78 (antibody), for which the absorbance in [1] came out at 0 absorbance; in experiment [2] it was 0 absorbance; in experiment [3] it was 1.4 absorbance; in experiment [4] it was 0 absorbance; in [5], 0 absorbance; in [6], 0 absorbance. Moreover, the absorbance in experiment [7], in experiment [8], in experiment [9], in experiment [10] and in [11] was 0 absorbance each time.

On to “ZV48 anti-Zika neutralizing antibody (The Native Antigen Company MAB12124)”, for which the absorbance in experiment [1] was 1.2 absorbance; in experiment [2], 0 absorbance; in experiment [3], 1.1 absorbance; in experiment [4] it was 0 absorbance; in experiment [5] it was 0 absorbance; in experiment [6], 0 absorbance. In addition, the absorbance is 0 absorbance in experiment [7]; 0 absorbance in experiment [8]; 1.1 absorbance in [9]; 0 absorbance in [10]; 0 absorbance in experiment [11].

Regarding “ZV67 anti-Zika neutralizing antibody (The Native Antigen Company MAB12125)”, the absorbance in [1] worked out at 1.1 absorbance; in experiment [2], 0.1 absorbance; in experiment [3], 1.2 absorbance; in experiment [4], 0 absorbance; in experiment [5] it was 0.1 absorbance; in [6], 0 absorbance. The absorbance came out at 0.1 absorbance in experiment [7]; 0.1 absorbance in experiment [8]; 1.5 absorbance in experiment [9]; 0.1 absorbance in [10]; 0 absorbance in experiment [11].

“fusion-loop antibody 4G2 (The Native Antigen Company AbFLAVENV-4G2)” had a % inhibition with VLPs of 80%. Besides, the absorbance was determined as 0.1 absorbance in experiment [1]; 0.1 absorbance in experiment [2]; 0.9 absorbance in experiment [3]; 0.1 absorbance in experiment [4]; 0.1 absorbance in experiment [5]; 0.1 absorbance in experiment [6]. For the same substance, the absorbance in [7], in [8], in experiment [9], in experiment [10] and in [11] was 0.1 absorbance in each case.
